Laboratory results as given in the supplement of paper PMC10567573.

B1: SOAT2 (parent)
chain: SLGKQKVFIIRKSLLDELMEVQHF
B2: CDC25A (parent)
chain: KPIVPTDGKRVIVVFHCEFSSERG

Variants of: B1
Assay: protein stability index of a GFP-peptide fusion (GPS, HEK-293T) (PSI 1-6); higher = more stable
Details: c terminus: a fixed tail appended
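Note: lentivirally expressed fusions sorted by FACS into six bins by GFP to DsRed ratio, PSI derived from sequencing read proportions per bin multiplied by bin number.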

Protein stability index: each site, then its substitutions
Q5: W 2.93; M 3.06; A 2.54; H 2.05; D 2.01; R 3.01; G 3.96; I 2.44; K 2.63; L 3.31; V 2.91; E 2.04; C 2.75; F 3.55; P 2.87; N 2.51; T 2.23; Y 1.85; S 2.73
G3: L 2.29; Y 2.76; W 2.5; K 1.74; P 1.76; A 2.12; F 2.29; D 2.12; N 2.07; C 3.08; V 2.97; S 2.73; I 3.27; R 2.98; H 3.41; T 2.83; M 3.27; E 1.94
L2: E 1.75; C 3.02; D 1.4; M 2.25; N 2.58; A 2.94; F 3.72; Y 2.69; V 3.51; H 3.11; T 3.3; K 1.44; R 2.42; Q 2.21; S 3.5
K4: A 1.55; W 2.19; C 2.88; E 1.52; Q 1.96; D 1.91; P 1.74; L 2.54; I 2.17; Y 2.8; H 2.31; T 2.4; F 2.22; S 2.25; R 2.29; M 2.15; N 1.78; V 2.8
S1: R 1.94; L 3.27; E 2.99; M 2.1; Q 2.6; H 2; Y 1.34; N 2.68; I 3.6; P 2.99; V 2; F 1.92; A 2.41; K 2.94; T 4.03; C 2.9
V7: K 2; H 1.59; M 1.82; G 1.82; D 1.48; L 3.44; C 2.4; P 1.49; E 1.67; I 3.05; A 1.72; F 2.56; N 1.92
K6: I 3.06; C 3.68; Q 2.98; V 1.81; R 2.74; H 1.97; T 3.25; Y 2.67; P 1.96; N 1.6; W 2.47; S 2.46; F 2.71; G 1.99; D 1.67; L 2.24; E 2.05; M 3.33; A 2.08

Variants of: B2
Assay: as above
Details: c terminus: a fixed tail appended

Protein stability index, by site and new letter:
E22: H 2.7; S 3.61; K 1.99; I 2.65; P 2.64; Q 1.96; C 2.52; T 2.75; A 2.39; L 3.4; Y 3.49; G 1.99; M 2.29; W 2.99; D 2.61; V 2.03; F 3.5; N 2.29; R 2.68
C17: P 2.64; M 1.99; G 1.98; V 2.73; S 1.85; I 2.68; Y 2.9; T 1.86; K 2.33; N 2.52; R 1.95; L 2.12; F 1.93; W 2.91; Q 2.32; H 1.38; A 2.24; D 2.77; E 2.57
S21: K 1.9; I 1.42; C 3.38; T 3.26; R 1.2; A 2.27; N 2.46; F 1.97; V 2.61; P 4.03; M 2.22; D 1.28; E 1.56; H 2.27; L 3.4
F19: G 2.15; K 2.18; E 2.47; T 2.1; P 1.8; D 2.41; C 1.98; Q 2.3; M 2.05; R 2.22; A 1.71; W 1.86; N 2; Y 1.89; V 2.19; S 2.27; H 1.86; L 2.32; I 1.65
G24: I 4.86; M 3.17; C 2.7; N 2.29; E 1.93; W 3.51; V 2.56; A 1.29; P 2.66; Q 3.67; D 2.09; T 3.03; K 1.44; H 3.36; S 2.92; Y 2.74; L 1.85; R 3.92
H16: A 1.79; Q 1.83; I 2.85; S 3.2; D 2.06; N 1.87; P 2.46; K 1.49; M 4.57; F 2.41; Y 3.43; L 3.13; C 2.31; E 1.5; R 3.3; V 2.32; G 1.76; T 3.6
E18: C 2.17; R 2.48; Y 2.26; N 2.34; D 1.79; Q 3.42; F 3.14; K 4; A 2.51; G 2.55; W 2.46; M 2.38; L 1.76; P 2.31; H 3.13; S 3.26; V 3.1; I 2.28
F15: R 3.06; Y 1.72; V 2.84; I 2.73; N 3.98; P 4.14; K 3.79; M 1.61; Q 3.78; E 4.32; A 2.47; T 2.92; W 1.55; D 4.34; C 1.68; L 3.28; H 3.19; G 2.98; S 3.47
V14: S 2.52; Q 2.24; F 1.83; D 3.36; C 2.57; M 1.9; N 2.35; T 1.72; W 2.09; H 2.54; R 2.09; P 3.44; L 2.17; K 2.43; Y 2.6; A 1.92; I 2.56; G 2.69; E 2.67
V13: H 2.08; Y 2.31; M 1.16; G 2.8; N 3.57; F 2.33; S 3.36; K 3.02; P 3.21; W 1.79; R 2.91; T 2.38; I 3.19; Q 3.24; L 2.97
S20: F 3.29; H 2.8; R 3.53; M 2.43; Y 2.42; T 2.79; P 1.92; W 2.1; Q 1.71; N 1.95; D 1.68; G 2.51; K 2.76; V 1.7; C 2.23; E 1.12; L 2.5; I 3.13; A 1.96
R23: G 1.6; W 1.55; D 2.52; L 2.44; F 3.05; C 2.82; P 2.35; N 3.72; S 2.19; I 3.36; K 2.67; Y 2.99; T 3.36; E 2.14; Q 2.61; M 2.92; H 1.84; V 3.12
